# In patent publication US20240317834A1, “COMPOSITIONS AND METHODS FOR NEUROLOGICAL DISEASES” (CODA BIOTHERAPEUTICS, INC., priority 2020, published 2024):
# Test system: Lenti-X 293T cells
# Test: YFP fluorescence quenching anion reporter plate reader assay of engineered receptors stimulated with acetylcholine or a non-native ligand
# Type: cell-based
# Conditions: for percent quench of YFP fluorescence, 30 nM TC-6683: TC-6683 30 nM; for percent quench of YFP fluorescence, 300 nM TC-6683: TC-6683 300 nM; for percent quench of YFP fluorescence, 3 uM TC-6683: TC-6683 3 uM; for percent quench of YFP fluorescence, 30 uM TC-6683: TC-6683 30 uM; for percent quench of YFP fluorescence, 100 uM TC-6683: TC-6683 100 uM; for percent quench of YFP fluorescence, 10 uM ach: acetylcholine 10 uM; for percent quench of YFP fluorescence, 100 uM ach: acetylcholine 100 uM; for percent quench of YFP fluorescence, 1 mM ach: acetylcholine 1 mM; for percent quench of YFP fluorescence, 3 mM ach: acetylcholine 3 mM
# Excerpt: To screen these mutant LGICs for those having novel response profiles to ligands, an anion reporter assay was developed to assess the function of the LGICs in a high throughput format. In this assay, cells expressing a YFP reporter whose fluorescence is quenched in the presence of anion are transfected with DNA encoding the channel of interest. Upon exposure to ligand, channels that are activated will flux anion, resulting in a dose-dependent quench of the YFP that can be detected on a plate reader. The greater the quench signal (i.e., the more positive the value), the higher the ligand activity on the receptor is.
# Lenti-X 293T cells (LX293T, Clontech) were maintained in DMEM containing 10% FBS and 1% penicillin/streptomycin (Invitrogen). […] Two days before assay, cells were split at a density of 20,000 cells/well in a 96-well tissue culture plate coated with poly-d lysine (Thermo Scientific). The next day, the cells were transiently transfected with 0.1 μg of DNA per well using standard Fugene protocol (Promega). On the day of assay, cells were washed 2 times in 1× extracellular solution (1×ECS: 140 mM NaCl, 5 mM KCl, 1 mM MgCl2, 2 mM CaCl2), 10 mM HEPES, 10 mM glucose, pH 7.2, mOsms 300). After the last wash, 100 μL of 1×ECS was added to the wells and the plate was incubated at 37° C. for 30 min. While incubating the plate, the drugs were diluted to a 2× concentration in 1×ECS-NaI (same components as 1×ECS except the 140 mM NaCl was replaced by 140 mM NaI). The plates were then read on a Flexstation3 (Molecular Devices). Each well, 8 wells at a time, of the plate is read for 2 min using a Flexstation3 (Molecular Devices) as follows: 1) a baseline YFP fluorescence is read for 17 sec, 2) 100 μL of ligand is added, and 3) the changes in YFP fluorescence are then measured every 1.3 sec for 1 minute and 43 seconds. The percent quench is calculated from the average fluorescence of the last 10 seconds of the read divided by the baseline average of the first 15 seconds prior to the ligand addition.
# FIGS. 1A-1J provide heat maps of the percent quench of YFP fluorescence following stimulation by various doses of either acetylcholine or the non-native ligand as indicated in the Figures. CODA71 (SEQ ID NO: 33) was used as a control, and CODA75 (SEQ ID NO: 29, a non-responding chimeric engineered receptor) was used as the negative control. Quenching of the fluorescence signal, as indicated by blue shaded cells, indicate the level of engineered receptor activation by the non-native ligand at that concentration.
molecule,measurement,setting,value
"CODA325: engineered chimeric LGIC receptor, L131G in SEQ ID NO: 33 (protein, synthetic sequence of chimeric LGIC) MRCSPGGVWLALAASLLHVSLQGEFQRKLYKELVKNYNPLERPVANDSQPLTVYFSLSLLQIMDVDEKNQVLTTNIWLQMSWTDHYLQWNVSEYPGVKTVRFPDGQIWKPDILLYNSADERFDATFHTNVGVNSSGHCQYLPPGIFKSSCPMDLKNFPMDVQTCKLKFGSWSYGGWSLDLQMQEADISGYIPNGEWDLVGIPGKRSERFYECCKEPYPDVTFTVTMRRRMGYYLIQMYIPSLLIVILSWISFWINMDAAPARVGLGITTVLTMTTQSSGSRASLPKVSYVKAIDIWMAVCLLFVFSALLEYAAVNFVSRQHKELLRFRRKRRHHKSPMLNLFQEDEAGEGRFNFSAYGMGPACLQAKDGISVKGANNSNTTNPPPAPSKSPEEMRKLFIQRAKKIDKISRIGFPMAFLIFNMFYWIIYKIVRREDVHNQ",YFP fluorescence quenching using CNL001,"1 nM CNL001, first column",74.429%
same,YFP fluorescence quenching using CNL001,"1 nM CNL001, second column",78.715%
same,YFP fluorescence quenching using TC-5619/Bradanicline,3 nM brd,68.45%
same,YFP fluorescence quenching using Varenicline,"3 nM var, first column",−12.241
same,YFP fluorescence quenching using Varenicline,"3 nM var, second column",−9.415
same,YFP fluorescence quenching using CNL001,"10 nM CNL001, first column",79.033%
same,YFP fluorescence quenching using CNL001,"10 nM CNL001, second column",79.322%
same,YFP fluorescence quenching using TC-5619/Bradanicline,30 nM brd,76.95%
same,YFP fluorescence quenching using Facinicline,30 nM fac,75.75
same,YFP fluorescence quenching using Varenicline,"30 nM var, first column",75.334
same,YFP fluorescence quenching using Varenicline,"30 nM var, second column",72.278
same,YFP fluorescence quenching using CNL001,"50 nM CNL001, first column",79.966%
same,YFP fluorescence quenching using CNL001,"50 nM CNL001, second column",80.091%
same,YFP fluorescence quenching using ABT-126,50 nM abt,−17.39%
same,YFP fluorescence quenching using CNL001,"100 nM CNL001, first column",81%
same,YFP fluorescence quenching using CNL001,"100 nM CNL001, second column",79.701%
same,YFP fluorescence quenching using CNL002,100 nM CNL002,45.62%
same,YFP fluorescence quenching using ABT-126,100 nM abt,6.89%
same,YFP fluorescence quenching using AZD-0328,100 nM azd0328,79.75%
same,YFP fluorescence quenching using ABT-126,300 nM abt,38.65%
same,YFP fluorescence quenching using AZD-0328,300 nM azd0328,80.62%
same,YFP fluorescence quenching using TC-5619/Bradanicline,300 nM brd,77.1%
same,YFP fluorescence quenching using Facinicline,300 nM fac,78.01
same,YFP fluorescence quenching using Varenicline,"300 nM var, first column",78.305
same,YFP fluorescence quenching using Varenicline,"300 nM var, second column",77.83
same,YFP fluorescence quenching using Varenicline,"500 nM var, first column",75.936
same,YFP fluorescence quenching using Varenicline,"500 nM var, second column",76.788
same,YFP fluorescence quenching using CNL001,"1 uM CNL001, first column",79.289%
same,YFP fluorescence quenching using CNL001,"1 uM CNL001, second column",80.581%
same,YFP fluorescence quenching using CNL002,1 uM CNL002,74.72%
same,YFP fluorescence quenching using ABT-126,1 uM abt,45.82%
same,YFP fluorescence quenching using TC-6987,1 uM tc6987,64.59
same,YFP fluorescence quenching using Varenicline,"1 uM var, first column",77.805
same,YFP fluorescence quenching using Varenicline,"1 uM var, second column",77.352
same,YFP fluorescence quenching using TC-6987,10 uM tc6987,76.28
same,YFP fluorescence quenching using CNL002,30 uM CNL002,77.4%
same,YFP fluorescence quenching using AZD-0328,30 uM azd0328,80.19%
same,YFP fluorescence quenching using Facinicline,30 uM fac,76.61
same,YFP fluorescence quenching using TC-6987,500 uM tc6987,70.95
same,"percent quench of YFP fluorescence, 30 nM TC-6683",,−21.27%
same,"percent quench of YFP fluorescence, 300 nM TC-6683",,−18.33%
same,"percent quench of YFP fluorescence, 3 uM TC-6683",,−7.03%
same,"percent quench of YFP fluorescence, 30 uM TC-6683",,56.84%
same,"percent quench of YFP fluorescence, 100 uM TC-6683",,64.51%
same,"percent quench of YFP fluorescence, 10 uM ach",,5.66%
same,"percent quench of YFP fluorescence, 100 uM ach",,74.07%
same,"percent quench of YFP fluorescence, 1 mM ach",,62.65%
same,"percent quench of YFP fluorescence, 3 mM ach",,69.49%
"CODA326: engineered chimeric LGIC receptor, L131A in SEQ ID NO: 33 (protein, synthetic sequence of chimeric LGIC) MRCSPGGVWLALAASLLHVSLQGEFQRKLYKELVKNYNPLERPVANDSQPLTVYFSLSLLQIMDVDEKNQVLTTNIWLQMSWTDHYLQWNVSEYPGVKTVRFPDGQIWKPDILLYNSADERFDATFHTNVAVNSSGHCQYLPPGIFKSSCPMDLKNFPMDVQTCKLKFGSWSYGGWSLDLQMQEADISGYIPNGEWDLVGIPGKRSERFYECCKEPYPDVTFTVTMRRRMGYYLIQMYIPSLLIVILSWISFWINMDAAPARVGLGITTVLTMTTQSSGSRASLPKVSYVKAIDIWMAVCLLFVFSALLEYAAVNFVSRQHKELLRFRRKRRHHKSPMLNLFQEDEAGEGRFNFSAYGMGPACLQAKDGISVKGANNSNTTNPPPAPSKSPEEMRKLFIQRAKKIDKISRIGFPMAFLIFNMFYWIIYKIVRREDVHNQ",YFP fluorescence quenching using CNL001,"1 nM CNL001, first column",76.424%
same,YFP fluorescence quenching using CNL001,"1 nM CNL001, second column",80.567%
same,YFP fluorescence quenching using TC-5619/Bradanicline,3 nM brd,72.24%
same,YFP fluorescence quenching using Varenicline,"3 nM var, first column",−5.939
same,YFP fluorescence quenching using Varenicline,"3 nM var, second column",−2.294
same,YFP fluorescence quenching using CNL001,"10 nM CNL001, first column",80.284%
same,YFP fluorescence quenching using CNL001,"10 nM CNL001, second column",81.232%
same,YFP fluorescence quenching using TC-5619/Bradanicline,30 nM brd,77.4%
same,YFP fluorescence quenching using Facinicline,30 nM fac,69.94
same,YFP fluorescence quenching using Varenicline,"30 nM var, first column",68.663
same,YFP fluorescence quenching using Varenicline,"30 nM var, second column",70.718
same,YFP fluorescence quenching using CNL001,"50 nM CNL001, first column",81.575%
same,YFP fluorescence quenching using CNL001,"50 nM CNL001, second column",82.544%
same,YFP fluorescence quenching using ABT-126,50 nM abt,−21.91%
same,YFP fluorescence quenching using CNL001,"100 nM CNL001, first column",81%
same,YFP fluorescence quenching using CNL001,"100 nM CNL001, second column",81.718%
same,YFP fluorescence quenching using CNL002,100 nM CNL002,27.88%
same,YFP fluorescence quenching using ABT-126,100 nM abt,−0.5%
same,YFP fluorescence quenching using AZD-0328,100 nM azd0328,80.39%
same,YFP fluorescence quenching using ABT-126,300 nM abt,34.86%
same,YFP fluorescence quenching using AZD-0328,300 nM azd0328,82.07%
same,YFP fluorescence quenching using TC-5619/Bradanicline,300 nM brd,78.02%
same,YFP fluorescence quenching using Facinicline,300 nM fac,80.07
same,YFP fluorescence quenching using Varenicline,"300 nM var, first column",79.88
same,YFP fluorescence quenching using Varenicline,"300 nM var, second column",79.742
same,YFP fluorescence quenching using Varenicline,"500 nM var, first column",79.311
same,YFP fluorescence quenching using Varenicline,"500 nM var, second column",80.029
same,YFP fluorescence quenching using CNL001,"1 uM CNL001, first column",82.334%
same,YFP fluorescence quenching using CNL001,"1 uM CNL001, second column",81.539%
same,YFP fluorescence quenching using CNL002,1 uM CNL002,73.79%
same,YFP fluorescence quenching using ABT-126,1 uM abt,56.66%
same,YFP fluorescence quenching using TC-6987,1 uM tc6987,73.37
same,YFP fluorescence quenching using Varenicline,"1 uM var, first column",80.952
same,YFP fluorescence quenching using Varenicline,"1 uM var, second column",79.329
same,YFP fluorescence quenching using TC-6987,10 uM tc6987,78.18
same,YFP fluorescence quenching using CNL002,30 uM CNL002,75.89%
same,YFP fluorescence quenching using AZD-0328,30 uM azd0328,82.23%
same,YFP fluorescence quenching using Facinicline,30 uM fac,78.32
same,YFP fluorescence quenching using TC-6987,500 uM tc6987,75.42
same,"percent quench of YFP fluorescence, 30 nM TC-6683",,−16.28%
same,"percent quench of YFP fluorescence, 300 nM TC-6683",,−11.73%
same,"percent quench of YFP fluorescence, 3 uM TC-6683",,−2.38%
same,"percent quench of YFP fluorescence, 30 uM TC-6683",,−9.77%
same,"percent quench of YFP fluorescence, 100 uM TC-6683",,0.97%
same,"percent quench of YFP fluorescence, 10 uM ach",,7.43%
same,"percent quench of YFP fluorescence, 100 uM ach",,73.57%
same,"percent quench of YFP fluorescence, 1 mM ach",,71.8%
same,"percent quench of YFP fluorescence, 3 mM ach",,74.49%
